Assay results from patent US20050182242A1, “Global analysis of protein activities using proteome chips” (priority 2001, published 2005).

Assays:
Conditions in all cases: liposome binding signal on yeast proteome chip, Cy3-streptavidin detection
PI(4)P liposomes = assay: Yeast proteome chip probed with PI(4)P liposomes
PI(3)P liposomes = assay: Yeast proteome chip probed with PI(3)P liposomes
PI(3,4,5)P3 liposomes = assay: Yeast proteome chip probed with PI(3,4,5)P3 liposomes
PI(3,4)P2 liposomes = assay: Yeast proteome chip probed with PI(3,4)P2 liposomes
[1] = test system: phosphatidylcholine (PC) liposomes; assay: Yeast proteome chip probed with PC liposomes
Summary of the method: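 Yeast proteome chips incubated 1 h at RT with sonicated liposomes of PC containing 1% (w/w) biotin-DHPE, plus 5% (w/w) of the indicated phosphoinositide where applicable. After PBS washes, bound liposomes detected with Cy3- or Cy5-streptavidin (>30 min, RT, dark) and fluorescence scanned.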

PI(4,5)P2 liposomes = assay: Yeast proteome chip probed with PI(4,5)P2 liposomes

Molecule | PI(4)P (PI(4)P liposomes) | PI(3)P (PI(3)P liposomes) | PI(3, 4, 5)P3 (PI(3,4,5)P3 liposomes) | PI(3, 4)P2 (PI(3,4)P2 liposomes) | PC [1] | PI(4, 5)P2 (PI(4,5)P2 liposomes)
VTC4: yeast GST-HisX6 fusion protein on proteome chip (protein, UniProt P47075 1-721, looked up, GST-HisX6 tag, yeast GST-HisX6 fusion protein on proteome chip) Vacuolar transporter …: MKFGEHLSKSLIRQYSYYYISYDDLKTELEDNLSKNNGQWTQELETDFLESLEIELDKVYTFCKVKHSEVFRRVKEVQEQVQHTVRLLDSNNPPTQLDFEILEEELSDIIADVHDLAKFSRLNYTGFQKIIKKHDKKTGFILKPVFQVRLDSKPFFKENYDELVVKISQLYDIARTSGRPIKGDSSAGGKQQNFVRQTTKYWVHPDNITELKLIILKHLPVLVFNTNKEFEREDSAITSIYFDNENLDLYYGRLRKDEGAEAHRLRWYGGMSTDTIFVERKTHREDWTGEKSVKARFALKERHVNDFLKGKYTVDQVFAKMRKEGKKPMNEIENLEALASEIQYVMLKKKLRPVVRSFYNRTAFQLPGDARVRISLDTELTMVREDNFDGVDRTHKNWRRTDIGVDWPFKQLDDKDICRFPYAVLEVKLQTQLGQEPPEWVRELVGSHLVEPVPKFSKFIHGVATLLNDKVDSIPFWLPQMDVDIRKPPLPTNIEITRPGRSDNEDNDFDEDDEDDAALVAAMTNAPGNSLDIEESVGYGATSAPTSNTNHVVESANAAYYQRKIRNAENPISKKYYEIVAFFDHYFNGDQISKIPKGTTFDTQIRAPPGKTICVPVRVEPKVYFATERTYLSWLSISILLGGVSTTLLTYGSPTAMIGSIGFFITSLAVLIRTVMVYAKRVVNIRLKRAVDYEDKIGPGMVSVFLILSILFSFFCNLVAK | 99.07 | 8.50 | 25.31 | 30.45 | 66.03 | 26.78
TAT2: yeast GST-HisX6 fusion protein on proteome chip (protein, UniProt P38967 1-592, looked up, GST-His6 tag, yeast GST-HisX6 fusion protein on proteome chip) Tryptophan permease: MTEDFISSVKRSNEELKERKSNFGFVEYKSKQLTSSSSHNSNSSHHDDDNQHGKRNIFQRCVDSFKSPLDGSFDTSNLKRTLKPRHLIMIAIGGSIGTGLFVGSGKAIAEGGPLGVVIGWAIAGSQIIGTIHGLGEITVRFPVVGAFANYGTRFLDPSISFVVSTIYVLQWFFVLPLEIIAAAMTVQYWNSSIDPVIWVAIFYAVIVSINLFGVRGFGEAEFAFSTIKAITVCGFIILCVVLICGGGPDHEFIGAKYWHDPGCLANGFPGVLSVLVVASYSLGGIEMTCLASGETDPKGLPSAIKQVFWRILFFFLISLTLVGFLVPYTNQNLLGGSSVDNSPFVIAIKLHHIKALPSIVNAVILISVLSVGNSCIFASSRTLCSMAHQGLIPWWFGYIDRAGRPLVGIMANSLFGLLAFLVKSGSMSEVFNWLMAIAGLATCIVWLSINLSHIRFRLAMKAQGKSLDELEFVSAVGIWGSAYSALINCLILIAQFYCSLWPIGGWTSGKERAKIFFQNYLCALIMLFIFIVHKIYYKCQTGKWWGVKALKDIDLETDRKDIDIEIVKQEIAEKKMYLDSRPWYVRQFHFWC | 51.39 | 60.50 | 68.29 | 62.48 | 83.93 | 85.79
RGD1: yeast GST-HisX6 fusion protein on proteome chip (protein, UniProt P38339 1-666, looked up, GST-His6 tag, yeast GST-HisX6 fusion protein on proteome chip) RHO GTPase-activating protein …: MEETAKKPASATVSAKSSHDGGTDDLAHLFSTPEIKKVLNSDVAINALLSRLKQSLLTCEEFMKFIRKKYAFEEEHVQELSKQYKHFFNIQGSTNSSLKKMIHEVLGFDGKMAQVKQSYITALQKMYSEISSLLLTMTKLRKSVKENSKRLEKDVSDAIHSAEKAQSRYNSLCQDWDKLRMTDPTKTKLTLRGSKTTKEQEEELLRKIDNADLEYKQKVDHSNSLRNTFITKERPRIVQELKDLILEIDTAMTIQLQKYTIWTENLVLNTGVTISPLDSTKSMKSFAGSVSNERDLYSFLNKYNQTGKHSLLINKNLIPVSYKKHPSMNHGQKNKSPPKFAVDPSRNSIPKRMISTHNESPFLSSSSNTAAVPNANLNSATPSLNTNKQLPPTMASSISSTSNAAGAMSPSSSIVTSDTTSSITKTLDPGNNSPQIPEELINSLDSDRPISHIQTNNNMPPGVQKNFKTFGVPLESLIEFEQDMVPAIVRQCIYVIDKFGLDQEGIYRKSANVLDVSKLKEEIDKDPANISMILPSKPHSDSDIYLVGSLLKTFFASLPDSVLPKALSSEIKVCLQIEDPTTRKNFMHGLIYNLPDAQYWTLRALVFHLKRVLAHEAQNRMNLRALCIIWGPTIAPANPDDANDVNFQIMAMEVLLEVSDQAFEPE | 127.60 | 6.00 | 19.35 | 54.31 | 54.59 | 55.31
RPH1: yeast GST-HisX6 fusion protein on proteome chip (protein, UniProt P39956 1-796, looked up, GST-His6 tag, yeast GST-HisX6 fusion protein on proteome chip) DNA damage-responsive …: MTKLIAPSEIVGGVPVFKPTYEQFEDFYAYCKAINKYGMKSGVVKVIPPKEWKDKLDLPYSAETLQKIKIKSPIQQHISGNKGLFMVQNVEKNKTYNIIQWKDLSKDYVPPEDPKARRNSRKGSVSKSTKLKLKNFESSFNIDDFEQFRTEYTIDLSDFQNTERLKFLEEYYWKTLNFTTPMYGADTPGSIFPEGLNVWNVAKLPNILDHMETKVPGVNDSYLYAGLWKASFSWHLEDQDLYSINYIHFGAPKQWYSIPQEDRFKFYKFMQEQFPEEAKNCPEFLRHKMFLASPKLLQENGIRCNEIVHHEGEFMITYPYGYHAGFNYGYNLAESVNFALEEWLPIGKKAGKCHCISDSVEIDVKKLAKSWRDNNKESKGTPPLNQLPNPAMPLLHRPTLKEMESSSLRSTSPDVGHFSNFKSKSSGVSSPLLSRMKDYSNIVEPTLEDPTLKLKRISSFQEQPLNKLLKRETSQTAMLTDHEDNIVAMSLTSMANSAASSPRLPLSRLNSSNELSNAQPLLDMTNNTLAFPRPNGPSGLNPLLYISNKNISGISHSAPHSPVNPNISLIKRVKSPNIVTLNISRESSRSPIALNYEARQQHSQQHSFSTPSTVSNLSTSVLGPLSDTNDIKTPHPERPNHKTANRILKKESPVETSKSNLILSKVASTRQEDSFTSRNDDLDKEQGSSPLNSKFAPEEIVLSGKNKIYICKECQRKFSSGHHLTRHKKSVHSGEKPHSCPKCGKRFKRRDHVLQHLNKKIPCISNETTVDAPIMNPTVQPQDGKAAINQQSTPLN | 66.19 | 6.00 | 9.90 | 90.73 | 56.93 | 18.73
PEX4: yeast GST-HisX6 fusion protein on proteome chip (protein, UniProt P29340 1-183, looked up, GST-His6 tag, yeast GST-HisX6 fusion protein on proteome chip) Ubiquitin-conjugating enzyme …: MPNFWILENRRSYTSDTCMSRIVKEYKVILKTLASDDPIANPYRGIIESLNPIDETDLSKWEAIISGPSDTPYENHQFRILIEVPSSYPMNPPKISFMQNNILHCNVKSATGEICLNILKPEEWTPVWDLLHCVHAVWRLLREPVCDSPLDVDIGNIIRCGDMSAYQGIVKYFLAERERINNH | 57.48 | 1.75 | 21.49 | 8.63 | 69.85 | 28.31
FRM2: yeast GST-HisX6 fusion protein on proteome chip (protein, UniProt P37261 1-193, looked up, GST-His6 fusion tag, yeast GST-HisX6 fusion protein on proteome chip) nitroreductase FRM2: MSPTGNYLNAITNRRTIYNLKPELPQGVGLDDVKRTVHVILKNTPTAFNSQVNRAVIIVGDTHKRIWDAVASAMPTAEAKKRPESCRDEAYGSVIFFTDEGPTEKLQRDFPALAAAFPTCAAHTTGAVQIQSWTALELLGLGANLQHYNDYVKSALPQDVPIAWTVQSQLVFGVPTALPEEKTFINNVINVYH | 12.63 | 3.50 | 16.88 | 59.34 | 63.39 | 75.34
APS2: yeast GST-HisX6 fusion protein on proteome chip (protein, UniProt Q00381 1-147, looked up, GST-HisX6 tag, yeast GST-HisX6 fusion protein on proteome chip) AP-2 complex subunit sigma: MAVQFILCFNKQGVVRLVRWFDVHSSDPQRSQDAIAQIYRLISSRDHKHQSNFVEFSDSTKLIYRRYAGLYFVMGVDLLDDEPIYLCHIHLFVEVLDAFFGNVCELDIVFNFYKVYMIMDEMFIGGEIQEISKDMLLERLSILDRLD | 159.82 | 39.50 | 15.97 | 56.51 | 58.70 | 103.65
SAS3: yeast GST-HisX6 fusion protein on proteome chip (protein, UniProt P34218 1-831, looked up, GST-His6 tag, yeast GST-HisX6 fusion protein on proteome chip) Histone acetyltransferase SAS3: MSLTANDESPKPKKNALLKNLEIDDLIHSQFVRSDTNGHRTTRRLFNSDASISHRIRGSVRSDKGLNKIKKGLISQQSKLASENSSQNIVNRDNKMGAVSFPIIEPNIEVSEELKVRIKYDSIKFFNFERLISKSSVIAPLVNKNITSSGPLIGFQRRVNRLKQTWDLATENMEYPYSSDNTPFRDNDSWQWYVPYGGTIKKMKDFSTKRTLPTWEDKIKFLTFLENSKSATYINGNVSLCNHNETDQENEDRKKRKGKVPRIKNKVWFSQIEYIVLRNYEIKPWYTSPFPEHINQNKMVFICEFCLKYMTSRYTFYRHQLKCLTFKPPGNEIYRDGKLSVWEIDGRENVLYCQNLCLLAKCFINSKTLYYDVEPFIFYILTEREDTENHPYQNAAKFHFVGYFSKEKFNSNDYNLSCILTLPIYQRKGYGQFLMEFSYLLSRKESKFGTPEKPLSDLGLLTYRTFWKIKCAEVLLKLRDSARRRSNNKNEDTFQQVSLNDIAKLTGMIPTDVVFGLEQLQVLYRHKTRSLSSLDDFNYIIKIDSWNRIENIYKTWSSKNYPRVKYDKLLWEPIILGPSFGINGMMNLEPTALADEALTNETMAPVISNNTHIENYNNSRAHNKRRRRRRRSSEHKTSKLHVNNIIEPEVPATDFFEDTVSSLTEYMCDYKNTNNDRLIYQAEKRVLESIHDRKGIPRSKFSTETHWELCFTIKNSETPLGNHAARRNDTGISSLEQDEVENDVDTELYVGENAKEDEDEDEDFTLDDDIEDEQISEENDEEEDTYEEDSDDDEDGKRKGQEQDENDIESHIRKERVRKRRKITLIEDDEE | 16.55 | 2.00 | 18.68 | 55.57 | 54.00 | 17.85
